B1: HDV Ribozyme (parent)
chain: GGCCGGCAUGGUCCCAGCCUCCUCGCUGGCGCCGGCUGGGCAACAUUCCGAGGGGACCGUCCCCUCGGUAAUGGCGAAUGGGACCCA

Variants of: B1
Test: self-cleavage, relative activity (ratio to wild type); higher = more cleavage; co-transcriptional

Point of comparison: U20G A56G, self-cleavage 0.151. Against it:
- U20C G50C — higher, 0.312
- U20C G29C — higher, 0.231
- U20C G67C — higher, 0.405
- C21G A51U — lower, 0.0354
- C21G A51G — lower, 0.131
- C21G C26G — lower, 0.0723
- U20G A45G — lower, 0.0755
- U20G A45U — lower, 0.138
- C21A A87C — lower, 0.0742
- U20G C66U — lower, 0.148
- C21A U37C — higher, 0.196
- C21A U37A — lower, 0
- U20G C21G — lower, 0
- U20G C21A — lower, 0.142
- C21A C57U — higher, 0.192
- C21A C57G — lower, 0.0811
- C21A G35A — lower, 0.0804
- C21A G35C — higher, 0.177
- C21G A71C — lower, 0.0449
- C21G A71G — lower, 0.0594
- C21G A42U — lower, 0.0437
- C21G A42G — lower, 0.0573
- U20C C66G — lower, 0.131
- U20G A42G — lower, 0.138
- U20C G59C — lower, 0.0898
- U20C G59U — lower, 0.128
- U20G U69C — higher, 0.185
- U20G U69A — lower, 0
- C21A G55U — lower, 0.0554
- C21A G55A — lower, 0.129
- U20G G25C — lower, 0
- U20C G52A — higher, 0.175
- U20C G52C — higher, 0.244
- C21G A77G — lower, 0.0386
- C21G A77C — lower, 0.0536
- U20C A45C — lower, 0
- U20C A45G — lower, 0
- U20C C63G — lower, 0.104
- U20C C63U — lower, 0.0898
- U20C U27A — higher, 0.196
- U20C U27C — lower, 0
- U20C C48U — lower, 0.0791
- U20C C48G — lower, 0.0594
- U20G U47C — lower, 0.133
- U20G C64G — higher, 0.196
- U20G C64A — higher, 0.178
- C21A G34A — lower, 0.119
- C21A G76A — higher, 0.256
- C21A G76U — lower, 0.0906
- C21A G76C — lower, 0.0997
- U20C A83U — lower, 0
- U20C A83C — lower, 0.133
- U20G G31U — lower, 0.102
- U20G C85U — lower, 0.0554
- U20G C85A — higher, 0.277
- U20G C85G — higher, 0.158
- C21A G54U — lower, 0.0773
- C21A — lower, 0.0856
- C21G — lower, 0.0702
- C21G A56G — lower, 0.0791
- C21G A56U — lower, 0.116
- C21A G50A — lower, 0.111
- C21G C48G — lower, 0.115
- C21G C48A — lower, 0
- U20G G76A — higher, 0.214
- U20G G76C — higher, 0.35
- U20G U60A — lower, 0
- U20C A51C — higher, 0.287
- U20C C22U — lower, 0.125
- C21A U65C — lower, 0.0583
- C21A U65G — lower, 0.0665
- C21G C49G — lower, 0
- C21G C49U — lower, 0
- C21G C49A — lower, 0
- U20C G53U — lower, 0.101
- U20C G53A — lower, 0.122
- U20C C58U — lower, 0
- U20G G29A — higher, 0.161
- U20C U46A — higher, 0.317
- U20C U46C — lower, 0
- U20G G50C — lower, 0.138
- U20G G50U — higher, 0.18
- U20C G34A — lower, 0.0504
- U20G U37A — lower, 0
- U20C G54A — lower, 0.145
- U20G C33A — lower, 0.119
- U20C A77C — lower, 0.0615
- U20C A77G — higher, 0.208
- U20G C61G — lower, 0.0536
- C21A G29U — lower, 0
- U20C C62U — lower, 0.0875
- U20G C41U — higher, 0.287
- U20G C41G — higher, 0.166
- U20G G74A — lower, 0.0923
- U20C C49U — higher, 0.192
- U20C C49G — lower, 0.0852
- U20G G73C — lower, 0
- U20G G73U — lower, 0.136
- U20G G59A — higher, 0.268
- U20C C32A — higher, 0.185
- U20C C32U — lower, 0.0426
- U20G C75G — lower, 0
- U20G C75A — lower, 0.0978
- C21A C30A — lower, 0.0373
- C21A C30U — lower, 0.0519
- C21A C30G — lower, 0.0652
- U20C C24U — lower, 0.0475
- U20G C58A — higher, 0.266
- U20G G35C — lower, 0
- U20G U72G — lower, 0
- U20C G38A — lower, 0
- C21A G53C — lower, 0.0639
- C21A A42C — lower, 0.0437
- C21A G80A — lower, 0.0289
- C21A G80U — lower, 0.0622
- C21G C30U — lower, 0.0308
- U20C C41U — lower, 0.0449
- U20C C41A — higher, 0.156
- U20C C86G — higher, 0.208
- U20C A70C — higher, 0.246
- C21A U79A — lower, 0.125
- U20G C84U — higher, 0.185
- U20G C84A — higher, 0.222
- U20C G80C — lower, 0.106
- C21A G28C — lower, 0
- C21A C58U — lower, 0.0627
- C21A C58A — lower, 0.104
- U20C C85U — lower, 0.0475
- U20C C85A — lower, 0.119
- C21A C64U — lower, 0.0852
- C21A C64G — lower, 0.0604
- C21A C64A — lower, 0.0692
- U20G G68C — higher, 0.166
- U20G G68U — higher, 0.201
- U20C U47C — higher, 0.262
- U20G A78C — higher, 0.249
- U20G G54C — higher, 0.571
- U20C C61A — higher, 0.166
- U20C C61G — lower, 0.128
- C21A A83G — lower, 0.0519
- C21A A83C — lower, 0.0378
- C21A C48U — lower, 0.0639
- C21A G68U — lower, 0.0432
- C21A G68A — lower, 0.0779
- C21A A43G — lower, 0.132
- C21A A43C — lower, 0.116
- U20C U79G — higher, 0.185
- U20G G28U — lower, 0.0831
- U20G G28C — lower, 0
- U20G G28A — lower, 0.0536
- U20G A56C — higher, 0.196
- U20G G80C — lower, 0.0519
- C21A A70U — lower, 0
- C21A C44A — lower, 0.0604
- C21A C44G — lower, 0.0852
- U20C C64G — lower, 0.128
- U20C C64A — lower, 0.145
- C21A C66G — lower, 0
- C21A U46C — lower, 0.0536
- U20C A56C — lower, 0.0615
- U20C A56U — higher, 0.266
- U20C A56G — lower, 0.101
- U20C G73A — lower, 0
- U20C G73C — lower, 0.135
- C21A C61A — lower, 0.0511
- C21A C61U — lower, 0.0963

— the RNAGym collection of RNA variant scans (doi:10.7554/elife.80360)
